Data taken from patent publication US20220380463A1 (Adimab, published 2022).

Target: T1, Cynomolgus CD3εδ Fc heterodimer (Cy CD3ε Fc / CD3δ Fc-HIS) (cynomolgus, UniProt Q95LI8 22-100)
T1 chain 1: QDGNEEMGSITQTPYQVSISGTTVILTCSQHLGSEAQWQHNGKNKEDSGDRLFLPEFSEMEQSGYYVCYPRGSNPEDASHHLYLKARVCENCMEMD
T1 chain 2: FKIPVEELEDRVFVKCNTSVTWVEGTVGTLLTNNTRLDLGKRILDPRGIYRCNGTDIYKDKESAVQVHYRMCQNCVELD
Experiment: BLI (Octet), IgG on AHC sensor, pH 6.0

| Binder | koff [s⁻¹] |
| --- | --- |
| SAD10320_P04_E12 (ADI-57393) (antibody, V domains shown, IgG; also called Ab119) VH: QVQLVQSGAEVKKPGASVKVSCKASGFNIKDYYMHWVRQAPGQRLEWMGWIDLENANTIYDAKFQGRVTITRDTSASTAYMELSSLRSEDTAVYYCARDAYGHTFYDVWGQGTLVTVSS VL: DIVMTQSPDSLAVSLGERATINCKSSQSLLNARTGKNYLAWYQQKPGQPPKLLIYWASTRESGVPDRFSGSGSGTDFTLTISSLQAEDVAVYYCKQSYHVRTFGGGTKVEIK | 0.0108 |
| SAD10319_P05_A02 (ADI-57396) (antibody, V domains shown, IgG; also called Ab122) VH: QVQLVQSGAEVKKPGASVKVSCKASGYTFASYDMHWVRQAPGQRLEWMGWIDAGTGATVYSQKFQGRVTITRDTSASTAYMELSSLRSEDTAVYYCARDAYGHYFYDHWGQGTLVTVSS VL: DIVMTQSPDSLAVSLGERATINCKSSQSLLNARTGKNYLAWYQQKPGQPPKLLIYWASTRESGVPDRFSGSGSGTDFTLTISSLQAEDVAVYYCKQSYSRRTFGGGTKVEIK | 0.0246 |
| SAD10319_P05_B03 (ADI-57400) (antibody, V domains shown, IgG; also called Ab127) VH: QVQLVQSGAEVKKPGASVKVSCKASGYTFESYVMHWVRQAPGQRLEWMGWIHSGTGNTDYSQKFQGRVTITRDTSASTAYMELSSLRSEDTAVYYCARDAYGHYFYDHWGQGTLVTVSS VL: DIVMTQSPDSLAVSLGERATINCKSSQSLLNARTGKNYLAWYQQKPGQPPKLLIYWASTRESGVPDRFSGSGSGTDFTLTISSLQAEDVAVYYCKQSYSRRTFGGGTKVEIK | 0.0346 |
| SAD10319_P05_A05 (ADI-57398) (antibody, V domains shown, IgG; also called Ab124) VH: QVQLVQSGAEVKKPGASVKVSCKASGYTFTAYTMHWVRQAPGQRLEWMGWINPDTGATDYSQKFQGRVTITRDTSASTAYMELSSLRSEDTAVYYCARDAYHHYFYDVWGQGTLVTVSS VL: DIVMTQSPDSLAVSLGERATINCKSSQSLLNARTGKNYLAWYQQKPGQPPKLLIYWASTRESGVPDRFSGSGSGTDFTLTISSLQAEDVAVYYCKQSYSRRTFGGGTKVEIK | 0.0118 |
| SAD10319_P05_C03 (ADI-57404) (antibody, V domains shown, IgG; also called Ab131) VH: QVQLVQSGAEVKKPGASVKVSCKASGYTFTSYNMHWVRQAPGQRLEWMGSIDAGTGATDYSQKFQGRVTITRDTSASTAYMELSSLRSEDTAVYYCARDAYHHYFYDVWGQGTLVTVSS VL: DIVMTQSPDSLAVSLGERATINCKSSQSLLNARTGKNYLAWYQQKPGQPPKLLIYWASTRESGVPDRFSGSGSGTDFTLTISSLQAEDVAVYYCKQSYSRRTFGGGTKVEIK | 0.00327 |
| SAD10319_P05_D02 (ADI-57407) (antibody, V domains shown, IgG; also called Ab134) VH: QVQLVQSGAEVKKPGASVKVSCKASGYTFDSYTMHWVRQAPGPRLEWMGSINAGTGNTDYSQKFQGRVTITRDTSASTAYMELSSLRSEDTAVYYCARDHYGHYFYDVWGQGTLVTVSS VL: DIVMTQSPDSLAVSLGERATINCKSSQSLLNARTGKNYLAWYQQKPGQPPKLLIYWASTRESGVPDRFSGSGSGTDFTLTISSLQAEDVAVYYCKQSYSRRTFGGGTKVEIK | 0.0241 |
| SAD10319_P05_D03 (ADI-57408) (antibody, V domains shown, IgG; also called Ab135) VH: QVQLVQSGAEVKKPGASVKVSCKASGYTFTDDAMHWVRQAPGHRLEWMGWIDAGTGNTYYSQKFQGRVTITRDTSASTAYMELSSLRSEDTAVYYCAHDAYGHYFYDVWGQGTLVTVSS VL: DIVMTQSPDSLAVSLGERATINCKSSQSLLNARTGKNYLAWYQQKPGQPPKLLIYWASTRESGVPDRFSGSGSGTDFTLTISSLQAEDVAVYYCKQSYSRRTFGGGTKVEIK | 0.0233 |
| SAD10319_P05_D01 (ADI-57406) (antibody, V domains shown, IgG; also called Ab133) VH: QVQLVQSGAEVKKPGASVKVSCKASGYTFTEYDMHWVRQAPGQTLEWMGWIDAGTGATVYSQKFQGRVTITRDTSASTAYMELSSLRSEDTAVYYCARDAYGRYFYDHWGQGTLVTVSS VL: DIVMTQSPDSLAVSLGERATINCKSSQSLLNARTGKNYLAWYQQKPGQPPKLLIYWASTRESGVPDRFSGSGSGTDFTLTISSLQAEDVAVYYCKQSYSRRTFGGGTKVEIK | 0.00929 |
| SAD10319_P05_B04 (ADI-57401) (antibody, V domains shown, IgG; also called Ab128) VH: QVQLVQSGAEVKKPGASVKVSCKASGYTFTSAVMHWVRQAPGQRLEWMGDINAGTGATDYSQKFQGRVTITRDTSASTAYMELSSLRSEDTAVYYCARDAYGRYFYDVWGQGTLVTVSS VL: DIVMTQSPDSLAVSLGERATINCKSSQSLLNARTGKNYLAWYQQKPGQPPKLLIYWASTRESGVPDRFSGSGSGTDFTLTISSLQAEDVAVYYCKQSYSRRTFGGGTKVEIK | 0.00258 |
| SAD10319_P05_C05 (ADI-57405) (antibody, V domains shown, IgG; also called Ab132) VH: QVQLVQSGAEVKKPGASVKVSCKASGYTFTSYNMHWVRQAPGPRLEWMGWIDAGTGATHYSQKFQGRVTITRDTSASTAYMELSSLRSEDTAVYYCARDAYHHYFYDVWGQGTLVTVSS VL: DIVMTQSPDSLAVSLGERATINCKSSQSLLNARTGKNYLAWYQQKPGQPPKLLIYWASTRESGVPDRFSGSGSGTDFTLTISSLQAEDVAVYYCKQSYSRRTFGGGTKVEIK | 0.00821 |
| SAD10319_P05_A01 (ADI-57395) (antibody, V domains shown, IgG; also called Ab121) VH: QVQLVQSGAEVKKPGASVKVSCKASGYTFTAYTMHWVRQAPGHRLEWMGWINPDTGATDYSQKFQGRVTITRDTSASTAYMELSSLRSEDTAVYYCARDAYHHYFYDVWGQGTLVTVSS VL: DIVMTQSPDSLAVSLGERATINCKSSQSLLNARTGKNYLAWYQQKPGQPPKLLIYWASTRESGVPDRFSGSGSGTDFTLTISSLQAEDVAVYYCKQSYSRRTFGGGTKVEIK | 0.0251 |
| SAD10319_P05_A03 (ADI-57397) (antibody, V domains shown, IgG; also called Ab123) VH: QVQLVQSGAEVKKPGASVKVSCKASGYTFNDYAMHWVRQAPGQRLEWMGWIDAGTGNTYYSQKFQGRVTITRDTSASTAYMELSSLRSEDTAVYYCARDAHGHYFYDVWGQGTLVTVSS VL: DIVMTQSPDSLAVSLGERATINCKSSQSLLNARTGKNYLAWYQQKPGQPPKLLIYWASTRESGVPDRFSGSGSGTDFTLTISSLQAEDVAVYYCKQSYSRRTFGGGTKVEIK | 0.0127 |
| SAD10319_P05_B05 (ADI-57402) (antibody, V domains shown, IgG; also called Ab129) VH: QVQLVQSGAEVKKPGASVKVSCKASGYTFVDYAMHWVRQAPGQRLEWMGWIDAGTGNTDYSQKFQGRVTITRDTSASTAYMELSSLRSEDTAVYYCARDAHGHYFYDVWGQGTLVTVSS VL: DIVMTQSPDSLAVSLGERATINCKSSQSLLNARTGKNYLAWYQQKPGQPPKLLIYWASTRESGVPDRFSGSGSGTDFTLTISSLQAEDVAVYYCKQSYSRRTFGGGTKVEIK | 0.00654 |
| SAD10319_P05_C01 (ADI-57403) (antibody, V domains shown, IgG; also called Ab130) VH: QVQLVQSGAEVKKPGASVKVSCKASGYTFTDDAMHWVRQAPGQRLEWMGWIDAGTGNTYYSQKFQGRVTITRDTSASTAYMELSSLRSEDTAVYYCAHDAYGHYFYDVWGQGTLVTVSS VL: DIVMTQSPDSLAVSLGERATINCKSSQSLLNARTGKNYLAWYQQKPGQPPKLLIYWASTRESGVPDRFSGSGSGTDFTLTISSLQAEDVAVYYCKQSYSRRTFGGGTKVEIK | 0.013 |
| SAD10319_P05_B02 (ADI-57399) (antibody, V domains shown, IgG; also called Ab126) VH: QVQLVQSGAEVKKPGASVKVSCKASGYTFTSYNMHWVRQAPGPSLEWMGSIDAGTGATDYSQKFQGRVTITRDTSASTAYMELSSLRSEDTAVYYCARDAYHHYFYDVWGQGTLVTVSS VL: DIVMTQSPDSLAVSLGERATINCKSSQSLLNARTGKNYLAWYQQKPGQPPKLLIYWASTRESGVPDRFSGSGSGTDFTLTISSLQAEDVAVYYCKQSYSRRTFGGGTKVEIK | 0.00411 |
| SAD10320_P04_F12 (ADI-57394) (antibody, V domains shown, IgG; also called Ab120) VH: QVQLVQSGAEVKKPGASVKVSCKASGFNIKDYYMHWVRQAPGQRLERMGWIDLENANTIYDAKFQGRVTITRDTSASTAYMELSSLRSEDTAVYYCARDAYGHEFYDVWGQGTLVTVSS VL: DIVMTQSPDSLAVSLGERATINCKSSQSLLNARTGKNYLAWYQQKPGQPPKLLIYWASTRESGVPDRFSGSGSGTDFTLTISSLQAEDVAVYYCKQSYSRRTFGGGTKVEIK | 0.00259 |
